The supplement of paper PMC10567573

B1: TRIM55 (parent)
chain: YKSFSKEQQTMDNLEKQLICPICL

Variants of: B1
Test: protein stability index of a GFP-peptide fusion (GPS, HEK-293T) (PSI 1-6); higher = more stable
Details: c terminus: a fixed tail appended
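Note: lentivirally expressed fusions sorted by FACS into six bins by GFP to DsRed ratio, PSI derived from sequencing read proportions per bin multiplied by bin number.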

Variant	protein stability index
YKSFSKEQQTMDNLEKQLICDICL [P21D]	1.07
YKSFSKEQQTMDNLEKQLICAICL [P21A]	1.66
YKSFSKEQQTMDNLEKQLICWICL [P21W]	2.53
YKSFSKEQQTMDNLEKQLICGICL [P21G]	2.21
YKSFSKEQQTMDNLEKQLICFICL [P21F]	1.74
YKSFSKEQQTMDNLEKQLICLICL [P21L]	1.67
YKSFSKEQQTMDNLEKQLICSICL [P21S]	3.16
YKSFSKEQQEMDNLEKQLICPICL [T10E]	2.33
YKSFSKEQQNMDNLEKQLICPICL [T10N]	2.26
YKSFSKEQQKMDNLEKQLICPICL [T10K]	2.54
YKSFSKEQQFMDNLEKQLICPICL [T10F]	1.29
YKSFSKEQQVMDNLEKQLICPICL [T10V]	2.04
YKSFSKEQQPMDNLEKQLICPICL [T10P]	2.53
YKSFSKEQQAMDNLEKQLICPICL [T10A]	1.74
YKSFSKEQQDMDNLEKQLICPICL [T10D]	2.08
YKSFSKEQQCMDNLEKQLICPICL [T10C]	2.82
YKSFSKEQQIMDNLEKQLICPICL [T10I]	1.65
YKSFSKEQQTIDNLEKQLICPICL [M11I]	1.83
YKSFSKEQQTHDNLEKQLICPICL [M11H]	1.82
YKSFSKEQQTYDNLEKQLICPICL [M11Y]	2.1
YKSFSKEQQTTDNLEKQLICPICL [M11T]	2.12
YKSFSKEQQTMDNLEVQLICPICL [K16V]	1.76
YKSFSKEQQTMDNLEYQLICPICL [K16Y]	1.67
YKSFSKEQQTMDNLEAQLICPICL [K16A]	1.8

Variant	protein stability index
YKSFSKEQQTMDNLEIQLICPICL [K16I]	1.42
YKSFSKEQQTMDNLEEQLICPICL [K16E]	1.68
YKSFSKEQQTMDNLEPQLICPICL [K16P]	2.57
YKSFSKEQQTMDNLEFQLICPICL [K16F]	2.14
YKSFSKEQQTMDNLEGQLICPICL [K16G]	2.08
YKSFSKEQQTMDNLEDQLICPICL [K16D]	2.33
YKSFSKEQQTMDNLERQLICPICL [K16R]	2.03
YKSFSCEQQTMDNLEKQLICPICL [K6C]	2.41
YKSFSIEQQTMDNLEKQLICPICL [K6I]	1.85
YKSFSTEQQTMDNLEKQLICPICL [K6T]	2.09
YKSFSYEQQTMDNLEKQLICPICL [K6Y]	1.98
YKSFSNEQQTMDNLEKQLICPICL [K6N]	2.04
YKSFSWEQQTMDNLEKQLICPICL [K6W]	2.51
YKSFSSEQQTMDNLEKQLICPICL [K6S]	2.14
YKSFSFEQQTMDNLEKQLICPICL [K6F]	1.3
YKSFSVEQQTMDNLEKQLICPICL [K6V]	1.49
YKSFSGEQQTMDNLEKQLICPICL [K6G]	2.15
YKSFSKEQQTMDNLEKQLICPICD [L24D]	2
YKSFSKEQQTMDNLEKQLICPICA [L24A]	1.92
YKSFSKEQQTMDNLEKQLICPICY [L24Y]	2.88
YKSFSKEQQTMDNLEKQLICPICC [L24C]	2.07
YKSFSKEQQTMDNLEKQLICPICN [L24N]	2.46
YKSFSKEQQTMDNLEKQLICPICT [L24T]	1.98
YKSFSKEQQTMDNLGKQLICPICL [E15G]	2.41

Variant	protein stability index
YKSFSKEQQTMDNLCKQLICPICL [E15C]	2.72
YKSFSKEQQTMDNLSKQLICPICL [E15S]	1.79
YKSFSKEQQTMDNLAKQLICPICL [E15A]	2.79
YKSFSKEQQTMDNLLKQLICPICL [E15L]	1.05
YKSFSKEQQTMDNLMKQLICPICL [E15M]	2.55
YKSFSKEQQTMDNLWKQLICPICL [E15W]	1.45
YKSFSKEQQTMDNLTKQLICPICL [E15T]	2.9
YKYFSKEQQTMDNLEKQLICPICL [S3Y]	1.44
YKMFSKEQQTMDNLEKQLICPICL [S3M]	1.85
YKCFSKEQQTMDNLEKQLICPICL [S3C]	2
YKKFSKEQQTMDNLEKQLICPICL [S3K]	2.44
YKTFSKEQQTMDNLEKQLICPICL [S3T]	2.69
YKPFSKEQQTMDNLEKQLICPICL [S3P]	2.05
YKFFSKEQQTMDNLEKQLICPICL [S3F]	1.65
YKEFSKEQQTMDNLEKQLICPICL [S3E]	2.25
YKNFSKEQQTMDNLEKQLICPICL [S3N]	2.32
YKQFSKEQQTMDNLEKQLICPICL [S3Q]	2.2
YKRFSKEQQTMDNLEKQLICPICL [S3R]	2.43
YKSFSKEQQTMDNLEKVLICPICL [Q17V]	2.01
YKSFSKEQQTMDNLEKYLICPICL [Q17Y]	2.02
YKSFSKEQQTMDNLEKILICPICL [Q17I]	1.65
YKSFSKEQQTMDNLEKMLICPICL [Q17M]	1.48
YKSFSKEQQTMDNLEKCLICPICL [Q17C]	2.12
YKSFSKEQQTMDNLEKDLICPICL [Q17D]	2.76

Variant	protein stability index
YKSFSKEQQTMDNLEKLLICPICL [Q17L]	2
YKSFSKEQQTMDNLEKQLICPIEL [C23E]	2.85
YKSFSKEQQTMDNLEKQLICPISL [C23S]	2.6
YKSFSKEQQTMDNLEKQLICPIRL [C23R]	2.37
YKSFSKEQQTMDNLEKQLICPIKL [C23K]	3.13
YKSFSKEQQTMDNLEKQLICPILL [C23L]	1.72
YKSFSKEQQTMDNLEKQLICPIYL [C23Y]	2.04
YKSFSKEQQTMDNLEKQLICPIHL [C23H]	2.19
YKSFSKEQQTMDNLEKQLICPIFL [C23F]	2.04
YKSFSKEQQTMDNLEKQLICPIAL [C23A]	2.29
YKSFSKEQATMDNLEKQLICPICL [Q9A]	2.25
YKSFSKEQVTMDNLEKQLICPICL [Q9V]	1.76
YKSFSKEQMTMDNLEKQLICPICL [Q9M]	2.17
YKSFSKEQPTMDNLEKQLICPICL [Q9P]	2.16
YKSFSKEQKTMDNLEKQLICPICL [Q9K]	2.15
YKSFSKEQGTMDNLEKQLICPICL [Q9G]	2.39
YKSFSKEQNTMDNLEKQLICPICL [Q9N]	2.22
YKSFSKEQSTMDNLEKQLICPICL [Q9S]	1.75
YKSFSKEQITMDNLEKQLICPICL [Q9I]	1.79
YNSFSKEQQTMDNLEKQLICPICL [K2N]	2.12
YESFSKEQQTMDNLEKQLICPICL [K2E]	1.73
YISFSKEQQTMDNLEKQLICPICL [K2I]	1.56
